Assay results reported in patent US20210145976A1.
Positions count from the first letter of the chain named.

B1: SEQ ID NO 106 (designed binder)
chain: MLPAPKNLVVSRVTEDSARLSWTAPDAAFDSFTIAYEEHGLVGEAIYLRVPGSERSYDLTGLKPGTEYHVGIMGVKGGVFSSPLSAIFTT
B2: SEQ ID NO 109 (designed binder)
chain: B1 chain with T33H, H39L, G40V, L41T, V42E, H69L, G71D, M73E, V79H, F80L
B3: SEQ ID NO 115 (designed binder)
chain: MLPAPKNLVVSRVTEDSARLSWTAPDAAFDSFFIGYLEPQPPGEAIVLTVPGSERSYDLTGLKPGTEYNVTIQGVKGGFPSMPLSAIFTTT
B4: SEQ ID NO 95 (designed binder)
chain: MLPAPKNLVVSRVTEDSARLSWTAPDAAFDSFRISYYEWYDLGEAIVLTVPGSERSYDLTGLKPGTEYWVDIAGVKGGYYSYPLSAIFTT
B5: SEQ ID NO 94 (designed binder)
chain: MLPAPKNLVVSRITEDSARLSWTAPDAAFDSFGIYYYEWWSTGEAIVLTVPGSERSYDLTGPKPGTEYYVKISGVKGGYRSYPLSAIFTT
B6: SEQ ID NO 88 (designed binder)
chain: MLPAPKNLVVSRVTEDSARLSWTAPDAAFDSFWIEYFEWTVGGEAIVLTVPGSERSYDLTGLKPGTEYYVSIYGVKGGWLSPPLSAIFTT
B7: SEQ ID NO 114 (designed binder)
chain: B6 chain with W33A, F37W, W39A, T40V, V41G, G42S, Y69H, S71Y, W79Y, P82L
B8: SEQ ID NO 104 (designed binder)
chain: B6 chain with R12H, W33D, F37Y, W39L, T40V, V41G, G42S, S71A, W79Y, P82R
B9: SEQ ID NO 103 (designed binder)
chain: B6 chain with P3L, W33A, W39Y, V41G, G42E, S71G, W79Y, P82R
B10: SEQ ID NO 102 (designed binder)
chain: MLPAPKNLVVSRVTEDSARLSWTAPDAAFDSFSIDYDEPQPVGEAIVLTVPGSERSYDLTGLKPGTEYRVDIWGVKGGPTSGPLRATFTT
B11: SEQ ID NO 113 (designed binder)
chain: MLPAPKNLVVSRVTEDSARLSWTAPDAAFDSFDIHYKEHSWWGEAIVLTVPGSERSYDLTGLKPGTEYIVPIPGVKGGGISRPLSAIFTT
B12: SEQ ID NO 99 (designed binder)
chain: MLPAPKNLVVSRVTEDSARLSWTAPDAAFDSFGIQYNEFVFRGEAIVLTVPGSERSYDLTGLKPGTEYFVPISGVKGGDDSRPLSAIFTT
B13: SEQ ID NO 107 (designed binder)
chain: B12 chain with G33F, N37T, F39S, V40H, F41W, R42V, F69A, S73E, D80S, R82T
B14: SEQ ID NO 84 (designed binder)
chain: MLPAPKNLVVSRVTEDSARLSWTAPDAAFDSFPIYYWEVFPAGEAIELDVPGSERSYDLTGLKPGTEYFVRIEGVKGGASSYPLRAEFTT
B15: SEQ ID NO 111 (designed binder)
chain: MLPAPKNLVVSRVTEDSARLSWTAPDAAFDSFWIYYYESVGTGEAIVLTVPGSERSYDLTGLKPGTEYFVDISGVKVGTYSLPLSAIFTT
B16: SEQ ID NO 37 (designed binder)
chain: MLPAPKNLVVSRVTEDSARLSWTAPDAAFDSFHIIYTEEEKEGEAIYLRVPGSERSYDLTGLKPGTEYLVEIEGVKGGKRSVPLNASFTT
B17: SEQ ID NO 35 (designed binder)
chain: MLPAPKNLVVSRVTEDSARLSWTAPDAAFDSFEIAYFEAIWNGEAIYLTVPGSERSYDLTGLKPGTEYQVEIRGVKGGPTSRPLFAWFTT
B18: SEQ ID NO 105 (designed binder)
chain: MLPAPKNLVVSRVTEDSARLSWTAPDAAFDSFGIAYYERSGAGEAIVLTVPGSERSYDLTGLKPGTEYMVYINGVKGGFVSSPLSAIFTT
B19: SEQ ID NO 38 (designed binder)
chain: MLPAPKNLVVSRVTEDSARLSWTAPDAAFDSFHIAYEESHTTGEAIFLRVPGSERSYDLTGLKPGTEYSVSIEGVKGGHYSPPLTAKFTT
B20: SEQ ID NO 110 (designed binder)
chain: MLPAPKNLVVSRVTEDSARLSWTAPDAAFDSFFIHYHEWWEAGEAIVLTVPGSERSYDLTGLKPGTEYLVDIPGVKGGDLSVPLSAIFTT
B21: SEQ ID NO 101 (designed binder)
chain: MLPAPKNLVVSRVTEDSARLSWTAPDAAFDSFAIDYDEPINSGEAIVLTVPGSERSYDLTGPKPGTEYEVEIYGVKGGYLSRPLSAIFTT
B22: SEQ ID NO 93 (designed binder)
chain: MLPAPKNLVVSRVTEDSARLSWTAPDAAFDSFYIGYLEPGDNGEAIVLTVPGSERSYDLTGLKPGTEYNVSIGGVKGGLGSYPLSAIFTT
B23: SEQ ID NO 36 (designed binder)
chain: MLPAPKNLVVSRVTEDSARLSWTAPDAAFDSFTITYIEWWENGEAIALSVPGSERSYDLTGLKPGTEYQVGIAGVKGGYKSYPLWALFTT
B24: SEQ ID NO 90 (designed binder)
chain: MLPAPKNLVVSRVTEDSARLSWTAPDAAFDSFTIHYWEFDPPGEAIVLTVPGSERSYDLTGLKPGTEYTVYIEGVKGGWWSKPLSAIFTT
B25: SEQ ID NO 91 (designed binder)
chain: B24 chain with T33V, H35E, F39R, D40T, P41Q, T69D, Y71W, E73S, W79K, K82E
B26: SEQ ID NO 98 (designed binder)
chain: B24 chain with V13I, T33D, H35P, W37G, P41T, P42I, T69D, W79H, W80L, K82W
B27: SEQ ID NO 97 (designed binder)
chain: MLPAPKNLVVSRVTEDSARLSWTAPDAAFDSFFISYFEGWASGEAIHLYVPGSERSYDLTGLKPGTEYSVHIQGVKGGQPSTPLSAIFTT
B28: SEQ ID NO 85 (designed binder)
chain: MLPAPKNLVVSRVTEDSARLSWTAPDAAFDSFFIWYWEKSVDGEAIVLTVPGSERSYDLTGLKPGTEYNVGIQGVKGGTPSDPLSAIFTT
B29: SEQ ID NO 86 (designed binder)
chain: B28 chain with F33I, W37A, K39W, S40V, V41N, N69R, G71E, Q73T, P80W, D82R
B30: SEQ ID NO 100 (designed binder)
chain: B28 chain with F33W, W35E, K39V, S40V, V41G, D42F, N69W, Q73Y, T79N, D82V

The binders below were run against human serum albumin (human) (UniProt P02768) (assay: screening ELISA).
Chain of human serum albumin (human) (P02768 25-609 limits assumed): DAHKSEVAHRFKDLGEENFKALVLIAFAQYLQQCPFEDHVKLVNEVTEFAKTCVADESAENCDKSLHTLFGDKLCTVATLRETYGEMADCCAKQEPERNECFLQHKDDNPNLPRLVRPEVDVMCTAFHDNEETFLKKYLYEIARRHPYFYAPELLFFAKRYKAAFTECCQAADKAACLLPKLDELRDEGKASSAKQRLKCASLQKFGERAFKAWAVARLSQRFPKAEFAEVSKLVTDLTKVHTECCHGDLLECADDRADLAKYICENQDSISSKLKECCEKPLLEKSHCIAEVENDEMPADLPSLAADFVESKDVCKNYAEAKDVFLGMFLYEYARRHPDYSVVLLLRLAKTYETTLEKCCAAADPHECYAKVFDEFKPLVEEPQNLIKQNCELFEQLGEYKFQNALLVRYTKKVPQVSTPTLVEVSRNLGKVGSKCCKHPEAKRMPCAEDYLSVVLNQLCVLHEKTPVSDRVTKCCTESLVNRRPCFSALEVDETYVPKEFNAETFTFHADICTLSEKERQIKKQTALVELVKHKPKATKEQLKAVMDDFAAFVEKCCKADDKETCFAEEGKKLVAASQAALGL

HSA | Binder
1200 | B1
1250 | B2
3450 | B3
1900 | B4
9900 | B5
6000 | B6
4200 | B7
1700 | B8
1200 | B9
13400 | B10
22600 | B11
8150 | B12
4050 | B13
3850 | B14
7450 | B15
2720 | B16
1520 | B17
1400 | B18
4160 | B19
18800 | B20
9100 | B21
1650 | B22
6160 | B23
2550 | B24
1800 | B25
15500 | B26
2200 | B27
2500 | B28
2250 | B29
2350 | B30
